Data taken from PMC13334617.

Target: ACM2 variant of AC fused to GFP (ACM2-GFP), encoded by plasmid pACM2-Gfp (Bordetella pertussis | not stated) (UniProt P0DKX7)
Assay: two-hybrid

calmodulin (CaM) with a 6-histidine tag at its N-terminus and a tetra-cysteine tag at its C-terminus, encoded by plasmid pTCam (from UniProt P0DP23 1-149) (natural protein)
ß gal (Rel. Units): 8 Rel. Units
